Results as given in US20030186334A1, “KTS-disintegrins” (Temple University - Of the Commonwealth System of Higher …, priority 2001, published 2003).

Tests used:
[1] = system: HMVECs; assay: endothelial cell tube formation assay on Matrigel; type: cell-based, human; conditions: 60 μM, 24 hours
Description: An endothelial cell tube formation assay was performed to assess the anti-angiogenic effect of obtustatin in vitro as follows. Twenty-four well plates were coated with a 1:2 dilution of Matrigel™ in EBM-2 medium, which was polymerized by incubation for 1 hour at 37° C. HMVECs (1.2×10^5 cells per well) were added onto the polymerized Matrigel™ (BD Biosciences, Lexington, Ky.) in EBM-2 medium, in the absence or presence of 60 μM obtustatin. The plates were incubated for 24 hours at 37° C., and analyzed for the extent of tube formation by observation with an inverted microscope, using a magnification of 10× ocular and 10× objective.

[2] = target: T1, α6β1 integrin (Homo sapiens, UniProt P05556+P23229); assay: adhesion of α6K562 cells to laminin; type: cell-based; conditions: α6β1, LM
T1 construct: expressed in transfected cells; host or cells: α6K562 cells

[3] = target: T2, α1β1 integrin (Homo sapiens, UniProt P05556+P56199); assay: adhesion of α1K562 cells to immobilized collagen IV; type: cell-based; conditions: α1K562 cells, α1β1, collagen IV
T2 construct: expressed in transfected cells; host or cells: α1K562 cells
Description: Collagen IV (0.2 μg/well) in 0.02 M acetic acid was immobilized by incubation overnight at 4° C. on a 96-well plate. Plates were then blocked with 1% (w/v) BSA (bovine serum albumin) in Hank's Balanced Salt Solution (HBSS) containing 3 mM Mg^2+ at room temperature for 1-2 hours to prevent cells from non-specifically binding to the plates. α1K562 cells were labeled by incubation with 12.5 μM 5-chloromethylfluorescein diacetete (CMFDA) in HBSS for 15 minutes at 37° C. CMFDA labeled α1K562 cells were then pelleted, washed and resuspended in HBSS buffer containing 3 mM Mg^2+ and 1% BSA. […] The plates were washed three times with HBSS containing 3 mM Mg^2+ and 1% (w/v) BSA to remove unbound cells. Bound cells were lysed using 0.5% (v/v) Triton X-100 in H2O. Fluorescent CMFDA released by lysis of adherent cells in a given well was read using a Cytofluor 2350 fluorescence plate reader.
Adhesive ligands for the selected integrins consisted of collagen IV (0.2 μg/well), collagen I, fibronectin, or vascular cell adhesion molecule-1 (VCAM-1). Adhesive ligands in 0.02 M acetic acid were immobilized overnight at 4° C. on a 96-well plate. Plates were then blocked with 1% (w/v) BSA (bovine serum albumin) in Hank's Balanced Salt Solution (HBSS) containing 3 mM Mg^2+ at room temperature for 1-2 hours to prevent cells from non-specifically binding to the plates. α1K562, α2K562, K562, A5, and Jurkat cells expressing the α1β1, α2β1, α5β1, αIIbβ3, and α4β1 integrins respectively were labeled by incubation with 12.5 μM 5-chloromethylfluorescein diacetate (CMFDA) in HBSS for 15 minutes at 37° C. CMFDA labeled cells were then pelleted, washed and resuspended in HBSS buffer containing 3 mM Mg^2+ and 1% (w/v) BSA. […] Plates were then incubated at 37° C. for 30 minutes as indicated in Table 5 and washed three times with HBSS containing 3 mM Mg^2+ and 1% (w/v) BSA to remove unbound cells. Bound cells were lysed using 0.5% (v/v) Triton X-100 in H2O. Fluorescent CMFDA released by lysis of adherent cells in a given well was read using a Cytofluor 2350 fluorescence plate reader.
The effect of obtustatin, viperisrastatin, echistatin, and eristostatin on the binding of selected integrins to their adhesive ligands was evaluated using the cell adhesion assay described in Example 6. The integrin-expressing cells, integrins and corresponding adhesive ligands, and the results of the cell adhesion assay are shown in Table 6.

[4] = target: α2β1 integrin (Homo sapiens, UniProt P05556+P17301); assay: adhesion of AJH10 blocked MV3 cells to immobilized collagen IV; type: cell-based; design: endogenous in cells; host or cells: MV3 human melanoma cells; conditions: adhesion via α2β1
Description: The α1β1 integrin specific inhibitory effect of obtustatin was confirmed using human melanoma MV3 cells. MV3 cells express both the α1β1 and α2β1 integrins. MV3 cells adhere strongly to collagen IV through α1β1 and α2β1 integrin-mediated interactions.
Collagen IV (0.2 μg/well) in 0.02 M acetic acid was immobilized overnight at 4° C. on a 96-well plate. Plates were then blocked with 1% (w/v) BSA (bovine serum albumin) in Hank's Balanced Salt Solution (HBSS) containing 3 mM Mg^2+ at room temperature for 1-2 hours to prevent cells from non-specifically binding to the plates. α1K562 cells were labeled by incubation with 12.5 μM 5-chloromethylfluorescein diacetete (CMFDA) in HBSS for 15 minutes at 37° C. CMFDA labeled MV3 cells were then pelleted, washed and resuspended in HBSS buffer containing 3mM Mg^2+ and 1% (w/v) BSA. 1×10^5 cells were then added to each well in the presence (10 μg/ml) or absence of the α1 integrin subunit specific AJH10 mAb and α2 integrin subunit specific P1E6 mAb as indicated in FIG. 5. Obtustatin was added at the concentrations indicated in FIG. 5 simultaneously with the mAbs. The plates were then incubated at 37° C. for 30 minutes and washed three times with HBSS containing 3 mM Mg^2+ and 1% (w/v) BSA to remove unbound cells. […] Fluorescent CMFDA released by lysis of adherent cells in a given well was read using a Cytofluor 2350 fluorescence plate reader.

T1 sequence (P23229 24-938 limits assumed): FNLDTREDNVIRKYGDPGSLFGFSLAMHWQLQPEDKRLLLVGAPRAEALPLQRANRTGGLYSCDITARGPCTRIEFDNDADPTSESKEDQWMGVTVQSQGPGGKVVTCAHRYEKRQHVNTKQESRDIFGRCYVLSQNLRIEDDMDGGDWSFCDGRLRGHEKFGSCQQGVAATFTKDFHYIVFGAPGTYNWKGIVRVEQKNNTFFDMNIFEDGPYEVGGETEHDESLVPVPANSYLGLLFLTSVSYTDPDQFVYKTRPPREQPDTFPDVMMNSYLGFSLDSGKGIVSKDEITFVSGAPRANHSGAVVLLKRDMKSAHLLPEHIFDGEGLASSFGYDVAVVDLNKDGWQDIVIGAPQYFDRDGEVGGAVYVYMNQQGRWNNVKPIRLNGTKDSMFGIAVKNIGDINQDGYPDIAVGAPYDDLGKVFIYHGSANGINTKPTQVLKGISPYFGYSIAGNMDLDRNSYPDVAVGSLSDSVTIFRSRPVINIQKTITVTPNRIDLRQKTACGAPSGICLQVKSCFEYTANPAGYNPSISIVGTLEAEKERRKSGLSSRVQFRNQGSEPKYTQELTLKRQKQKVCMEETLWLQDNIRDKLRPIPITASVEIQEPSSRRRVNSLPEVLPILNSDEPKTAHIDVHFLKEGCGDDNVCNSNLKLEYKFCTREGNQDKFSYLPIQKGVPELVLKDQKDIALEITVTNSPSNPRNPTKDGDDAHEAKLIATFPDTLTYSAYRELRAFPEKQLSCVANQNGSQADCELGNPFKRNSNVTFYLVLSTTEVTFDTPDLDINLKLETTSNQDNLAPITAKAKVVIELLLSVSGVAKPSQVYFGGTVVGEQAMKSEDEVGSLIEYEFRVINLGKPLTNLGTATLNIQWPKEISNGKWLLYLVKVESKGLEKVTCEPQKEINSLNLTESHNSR
T1 sequence (P23229 942-1130 partner limits assumed): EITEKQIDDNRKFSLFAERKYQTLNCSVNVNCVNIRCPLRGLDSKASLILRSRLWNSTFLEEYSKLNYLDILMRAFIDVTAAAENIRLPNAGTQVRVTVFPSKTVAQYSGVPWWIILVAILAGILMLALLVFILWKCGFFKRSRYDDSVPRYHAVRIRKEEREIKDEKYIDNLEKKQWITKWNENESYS
T1 sequence (P05556 21-798): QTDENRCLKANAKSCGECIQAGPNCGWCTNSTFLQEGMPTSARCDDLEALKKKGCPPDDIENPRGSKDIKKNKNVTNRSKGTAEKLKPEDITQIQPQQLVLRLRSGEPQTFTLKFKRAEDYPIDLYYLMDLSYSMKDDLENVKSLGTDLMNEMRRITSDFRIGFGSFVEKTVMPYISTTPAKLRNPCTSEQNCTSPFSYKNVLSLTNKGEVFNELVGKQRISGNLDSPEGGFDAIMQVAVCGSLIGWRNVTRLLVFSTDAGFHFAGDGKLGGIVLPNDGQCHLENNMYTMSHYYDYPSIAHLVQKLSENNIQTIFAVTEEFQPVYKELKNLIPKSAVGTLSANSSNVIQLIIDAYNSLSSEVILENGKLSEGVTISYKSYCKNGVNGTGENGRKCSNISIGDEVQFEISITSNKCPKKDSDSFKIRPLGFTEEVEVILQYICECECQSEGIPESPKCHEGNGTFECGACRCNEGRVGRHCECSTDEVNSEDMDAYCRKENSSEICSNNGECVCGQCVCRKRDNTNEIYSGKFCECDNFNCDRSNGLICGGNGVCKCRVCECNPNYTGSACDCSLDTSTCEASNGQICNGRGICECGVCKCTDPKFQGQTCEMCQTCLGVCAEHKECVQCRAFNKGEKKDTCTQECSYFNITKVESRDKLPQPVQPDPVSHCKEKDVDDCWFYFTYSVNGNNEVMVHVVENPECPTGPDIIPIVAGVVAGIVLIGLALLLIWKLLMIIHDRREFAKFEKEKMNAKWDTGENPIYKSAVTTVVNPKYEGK
T2 sequence (P56199 29-1179): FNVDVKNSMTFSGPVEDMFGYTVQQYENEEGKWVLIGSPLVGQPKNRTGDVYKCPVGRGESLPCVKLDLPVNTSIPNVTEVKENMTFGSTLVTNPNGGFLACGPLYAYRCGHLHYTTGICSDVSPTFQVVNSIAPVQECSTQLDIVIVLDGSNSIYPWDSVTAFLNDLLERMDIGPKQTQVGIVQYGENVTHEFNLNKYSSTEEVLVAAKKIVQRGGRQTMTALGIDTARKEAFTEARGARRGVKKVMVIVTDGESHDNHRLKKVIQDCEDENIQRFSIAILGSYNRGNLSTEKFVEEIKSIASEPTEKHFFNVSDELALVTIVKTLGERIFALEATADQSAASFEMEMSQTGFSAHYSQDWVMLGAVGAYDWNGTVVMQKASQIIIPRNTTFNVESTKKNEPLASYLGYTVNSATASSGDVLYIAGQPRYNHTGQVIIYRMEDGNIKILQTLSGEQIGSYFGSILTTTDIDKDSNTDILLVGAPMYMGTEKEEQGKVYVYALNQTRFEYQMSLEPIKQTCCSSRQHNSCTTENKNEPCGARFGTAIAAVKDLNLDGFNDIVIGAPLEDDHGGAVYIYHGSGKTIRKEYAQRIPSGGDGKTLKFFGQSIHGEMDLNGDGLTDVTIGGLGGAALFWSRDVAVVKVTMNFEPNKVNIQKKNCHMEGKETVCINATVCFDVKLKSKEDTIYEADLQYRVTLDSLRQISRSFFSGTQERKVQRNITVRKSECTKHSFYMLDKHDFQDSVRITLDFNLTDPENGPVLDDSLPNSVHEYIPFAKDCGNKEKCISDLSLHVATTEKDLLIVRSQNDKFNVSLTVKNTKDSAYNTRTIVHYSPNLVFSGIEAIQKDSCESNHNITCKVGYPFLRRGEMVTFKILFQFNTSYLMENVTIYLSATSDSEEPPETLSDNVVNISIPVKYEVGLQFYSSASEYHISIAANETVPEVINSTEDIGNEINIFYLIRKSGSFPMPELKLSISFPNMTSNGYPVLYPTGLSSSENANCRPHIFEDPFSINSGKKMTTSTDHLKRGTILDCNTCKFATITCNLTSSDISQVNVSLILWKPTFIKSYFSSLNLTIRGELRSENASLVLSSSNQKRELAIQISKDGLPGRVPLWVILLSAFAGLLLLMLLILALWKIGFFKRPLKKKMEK
T2 sequence (P05556 21-798): as the sequence (P05556 21-798) above

**Q.** How did the “formation of HMVEC tubes on Matrigel” value [1] turn out when “Obtustatin (CTTGPCCRQCKLKPAGTTCWKTSLTSHYCTGKSCDCPLYPG)” was run?
**A.** completely abolished

**Q.** And the IC50 [2]?
**A.** > 10000 nM

**Q.** And the IC50 [3]?
**A.** 2 nM

**Q.** What about the “inhibition of adhesion of MV3 cells to collagen IV” value [4] of the same substance?
**A.** comparatively insensitive
